The DeepSol protein solubility set

Test: soluble on expression in E. coli; label from the status in PepcDB or PDB records

Row | Sequence | soluble on expression in E. coli
1 | MTTMTPDAAGLAALEARLKQDLAWLELPAKSWVPRRVVDGKSVVDVVIVGAGMAGLVASAMLRRLGVDNQLVLDRARAGEEGPWVTFARMRTLRSPKELTGPAMGMPALTFRAFYEAQYGRQAWQALDRAPRTMWMDYLIWYRKVLDLPVRNGVSVERIHARTDELFALDISEGGTSRQILARHVVLATGRDGLGGAYVPSLCDGIDRRFWAHSSAPIDFERLRGRRVAVVGAGASAMDNAAMALEAGAARLDLFIRRADIPRVNKFTGIGSQGVVHGFAGLSDDWKWRFLDHTLKAQTPPPRQSVLRVSAYPQAHFHLASPIDDLAVAGDHLTVTTPKGRYATDFIIFGTGFKVDLALRDELAEFAPHIRFWCDRFPAPDGMDNAELENSPDLGDSFQFLEKEPGACPMLARLHCFNYPATLSHGKLSGDIPAISEGADRLARGIVRRLFVEDREIHFANLKAFATPELAGDEWQDADVTHQPAE | soluble
2 | MRITVLILSTLLVTILNGLPIVPVVEDSISPEEVPEPSPEIEENTVPPPRVISPRVDVSVDVNEDGVLDIDEIRYAAFVHHGLSASVVEDLFKQVDTNRDNVLDAREFDAIRMLVLEKAENAALRYLQNVDTDRDGLLSLQEAQIYLLREYGIGYHDVARLWKLVPADLSDRMNSTLFSKLRRRVRGMTIRLARQIMKNADLNGDGHISVDEAQAIAFEQEGIGAGDVASMVGSVDENMDGELNAPEFADFERIIRARAIENSKKAMRVVDADNSGTLTLDEAKRVAFEHYGFDEATLAPFFGQADENEDGQLDNVEFAGFRSVIRARSVRDAMDKMKRIDTNGDGLVSNAEATDSTKKEDDMDSEETLALFNIADQNKSGKLDKVELADFNRLVRLSSIKFATDHFKEFDLDGNDAVTFDEIALLIEQKYGIPRSMIKTFFDRIDVDGSGDLMPAEIVDFRHLIRNHVSQQRQEKVYFLTL | not soluble
3 | GHVSDRPAGRMPLTVHRNVGRWLSEILHASIRDTGVSSRIEFVRRTLHGWVREEYSETELPNAVYRNLYFPVLDAQPAHAGSGKIETISECDRLKNLVRNVTDTLVENYPQGLESEALLIALDGVKLELARIRKDIEMYGDPRKR | soluble
4 | MAVRVCCHAPPGVSNHLFTFCAGNLTTGFSGGSVTSQKGGAAGLPTCSRRCPRGCLPGSDPLPRHPRRYAPPVTPPVTPPTTPAPRSRARMLELVFPKDTNYHGTAFGGWVLALMDKAASVAAVRHAGGNVVTARMDGVDFHVPIRVGDAVALDARVIRVGRSSMTIRVDVYRENMASGEQQLATGGLFTFVALGEDGKPRPVPPLPEGSTDSEQPDYEARPLEHHHHHH | not soluble
5 | MIQDIKRSSAPAAPAPVTVLKMWPNEMRSQSLEENLDAKLEQFKKEHSPVKERGNCSKTRKISENQPPPSFEVVMAKIRGIQESLKNMEDQMNEEERGKEMPDSTENSFDFSKIWQYFDQTRIEEIRALLKKRQFPDSP | not soluble
6 | MNGIKTGLGITPGEHIISADSALSRNIRQCFCLSCHGRLILQTDAQGAWFEHDLHALSEQQKADCVVLNPEKSHPYIEDMAMFLSPLPVVLEWHCVMCEQFFHGKKFCEACGTGIYCRAVCTKSVYSYQPDLFEDCGGAST | not soluble
7 | MKLRLSALALGTTLLVGCASSGTDQQGRSDPLEGFNRTMYNFNFNVLDPYIVRPVAVAWRDYVPQPARNGLSNFTGNLEEPAVMVNYFLQGDPYQGMVHFTRFFLNTILGMGGFIDVAGMANPKLQRTEPHRFGSTLGHYGVGYGPYVQLPFYGSFTLRDDGGDMADGLYPVLSWLTWPMSVGKWTLEGIETRAQLLDSDGLLRQSSDPYIMVREAYFQRHDFIANGGELKPQENPNAQAIQDDLKDIDSE | not soluble
8 | MGSDKIHHHHHHMNLLSPSDPIVLSTAYLPPIQYFTKLLHPEGVLLETAENFVKQSYRNRCHIAGPEGMQPLTIPVEKSPSPKAPIRDIRISEHGNWRHLHLNALISSYGSAPFFDHYMTEIEPFYRHKYTFLWDFNLDLLSVCLEWLDISPLIMFTFEYVEDCPNDFRYSIRPKQAPEDESFRPRVYYRTFAHKYGFLPNLSIVDLIFHEGPSAIQTLKECIR | not soluble
9 | MSLSSFPDVPGWVKPSVDYLINKNVLSGMPDGTFSPNLEIDRGSSAKVMAKILELPIDQSAKPSFDDSKSHWAAPYIAAIEKAGVIKGDGKGNFNPTGKLTRGAMASMLVHAYKLQEKVTGNPPTVFNDLKDHWSEKYVNILVELGISNGYGDDNWKPDQTITRAETVSLVARTDEGHHHHHH | not soluble
10 | MGSDKIHHHHHHMWQDILNIHPDCIEDFINFDKLPGQAASLIAFAGMSYLQTEYKIGKTGKGNICLNNENNSGHVHYLISTHAGEGKIKLGNNEYLVKPGSIVLLPAGTPFLYELSGEYWEMCWLLLHDCSEYKFVHQLHPSVYSSINAERLYQTMSLIREFQHGESIYQSDIILRLVEVLVYQIAQTLNMGQQLTKQQQKFHSLIRRVNKQLQLSWTVKQLAAEMHMSEPHFFRLCKKEMGMTPIKLLTHTRLEYACYLLRYTQYNLDQIADTVGYGDSASFAHRFKKDYGLSPGRWRKEQINNFQSNDIENGEKR | not soluble
11 | MSLIREQVVRPLNAMVDASEKIKNRNFDVMLEETSSTEMGILSRTFNSMAGDLGKLYRGLEHAVNEKTNKLQMANQSLQVLYHSSQELTASRITASNFQTILRHWVALEGICALRLEIEEEAGKPLILQEGKPSGAVMLQTPLTLDGHHLGFLYWEAGSPEPDRALIDNFALILSRAIYYNQAQRQAEQLLLMEERATIARELHDSLAQSLSYLKIQLTLLKRSVTPLKSDGDLSKTENIIREIDKGLSDAYTQLRELLTTFRLTLTEGSFGQSLLGMLTQLSGQTDAKIELNNALSSIALDAHQQVHLVQLIREATINAIKHAKATKIKVNCQEQQGRVQVTIEDDGVGFDLQDHKINHYGMSIMQERAARLRGELKVESAPGKGCKVVLTYQQSEEKNKNEEGHHHHHH | soluble
12 | MGSDKIHHHHHHMPMRKEQQSRPDLRVLKSLMVCATIAASLILHSPSLMAAEEATGATSTAPSACSINPSEKLKNLFTEVKQYLGIRYRFGGDTPSGFDCSGFVRFMFNKEFNVNLPRSSREMATIGTRIDRNELRPGDLVFFKNAEDRINHVGIFVGNDTFVHSSLSKGITRDTLNESYYSKRFATGVRILDIQGNRIPDDFNNLFDESNNGNSPS | not soluble
13 | SAQESLESQEQRARAALRERYLRSLLAMVGHQVSFTLHEGVRVAAHFGATDLDVANFYVSQLQTPIGVQAEALLRCSDIISYTFKP | soluble
14 | MASIVFSTIGNPKGYQKVTYEIDGEKFESNVSVLALRDLLKVDKTVVILGISVADVYNCKYADYRSCKECIIQNSKNDLGISESYVVAPNVYQKFKGKPDHYFTYIYYHSLRILEKEGINEVFIDTTHGINYMGVLAKEAIQLAVSAYAAKSEKEVKVSLYNSDPVGKDVSDTVKLHEIEAIKISPLSGLKYVTYQILNKDKNFFNKIFSDSVNAIPRFATALDNGLFIYLSEKDSSLHLKRLEDDLSKDPLLTPSENEINVVYKDMKYALSHALFYVISRFSGNVDLDTLRHYAETYADKVTRAIIENEVDKIEKYQMGSERKLLGEYMKVEGKGFDKRILYAHGGLPYAGTYVYKEKDKVYVTYGDKIDEIERQI | soluble
15 | MGHHHHHHSHMKQVAVISGKGGTGKTTFSATIHALEGGVVADCDVDAPNLHILLKPQILKAEDFIASKKARIMPEKCSSCGLCYDLCRFGAVVAEDGYYVDEKKCEGCAFCFNVCPERAIEMENVKTGDLYVSKTEWGYFVHARLKPGEENTGRLVTEVKNRAKEIAEESNAEFLIVDSAPGVGCPVMASLTGVDAAIIVTEPTVSGLSDMLRILELCEHFRIRPFVVVNKFDLNVNIASEIESYCSENGVEFAGRVPFDKAIPEQIANLNFPFSGKAADKMVEIWKKLRE | not soluble
16 | MAHHHHHHMQMNSYAGGYTTHNRSYAAMVPPPMPMPPGWEMAYTPNGEIYYIDHNTRTTHWQLPAEYTMQQPVCSYRGPQRQRRGIDRSKAKTKMCMNIENGGTCSYGANCAFAHSSEELSTHPHFNSAPDAGYSAK | not soluble
17 | MTDAQSRDEKGIPASIYDGIFKNNRQIKPGNPNELKMVMGLKLKEVNKDCADAVLRVSKATLSWEIVREIMNATERLIQERVSDPTGQVAIAVDPPSSWSKSVTDFLASCYKLSPSPNFKFLELLAILTGKSQYLILQWFDTAEEEKREKNQKLETATFKRHCPWRKRHRLIQPLSNATAIPFLEAAFQKSSIPGSVELYDLQLKTNWFICELKAWFTARRVAEEIKGKLSELTGVQGVAKDQS | not soluble
18 | MTTDQIAAFCLQLPGAREDLKWGSNRVFSVAGNKMFAILDFVDKDGGLAFKVGSELFLGYVDRPGIRPAPYLARAHWIVMARPYPMKAAELREALVRSHQLVVARLPKRQRLGLVLDA | not soluble
19 | MQEIIASVDHIKFDLEIAVEQQLGAQPLPFPGMDKSGAAVCEFFLKAACGKGGMCPFRHISGEKTVVCKHWLRGLCKKGDQCEFLHEYDMTKMPECYFYSKFGECSNKECPFLHIDPESKIKDCPWYDRGFCKHGPLCRHRHTRRVICVNYLVGFCPEGPSCKFMHPRFELPMGTTEQPPLPQQTQPPAKQRTPQVIGVMQSQNSSAGNRGPRPLEQVTCYKCGEKGHYANRCTKGHLAFLSGQ | soluble
20 | MGGKKFQAMPQLPSTVLDRVFEQARQQPEAIALRRCDGTSALRYRELVAEVGGLAADLRAQSVSRGSRVLVISDNGPETYLSVLACAKLGAIAVMADGNLPIAAIERFCQITDPAAALVAPGSKMASSAVPEALHSIPVIAVDIAAVTRESEHSLDAASLAGNADQGSEDPLAMIFTSGTTGEPKAVLLANRTFFAVPDILQKEGLNWVTWVVGETTYSPLPATHIGGLWWILTCLMHGGLCVTGGENTTSLLEILTTNAVATTCLVPTLLSKLVSELKSANATVPSLRLVGYGGSRAIAADVRFIEATGVRTAQVYGLSETGCTALCLPTDDGSIVKIEAGAVGRPYPGVDVYLAATDGIGPTAPGAGPSASFGTLWIKSPANMLGYWNNPERTAEVLIDGWVNTGDLLERREDGFFYIKGRSSEMIICGGVNIAPDEVDRIAEGVSGVREAACYEIPDEEFGALVGLAVVASAELDESAARALKHTIAARFRRESEPMARPSTIVIVTDIPRTQSGKVMRASLAAAATADKARVVVRG | soluble
21 | MSLKWIDSHIHVDQYKDEEKSRLLKDVENSKEIQGLIAVSMNYQSSKEILSLAKRYSFVHPAVGFHPEQPIHKEECEKIYKLIEDHVEDIVAIGEVGLPYYLRKEDEHIAINSYISVLQRFVELASKYDLPIVLHAVYEDADVVCDLLEKHKVSRAHFHWFKGSETTMERMMRNGYYISITPDVLHKEKIRKIVSYYPLEYMMVETDGPWGFQEGVMTHPGMIREVLKEISVIKNVAVDKVAETIYENTIQFYLKGEGHHHHHH | soluble
22 | MKTKIIGVLGLGIFGQTLAQELSNFEQDVIAIDSNPENVQAVAEVVTKAAIGDITDLAFLKHIGISDCDTVIIATGNSLESSVLAVMHCKKLGVPQVIAKARNLVYEEVLYEIGADLVISPERESGQNVAANLMRNKITDVFQIESDISVIEFKIPKSWVGKTVEQLNIRHKFDLNLIGIRKAKNKPVDTEVPINSPLEEGIILVAIANSDAFQRYDYLGYFNLEHHHHHH | soluble
23 | TTHKFEHPLNEKTRIYLRVESLLRQAHLASGFADNHQYQLFFRALFDMVEIFEQIQLKSELAKDLEKQRLSYRHWLNVEGVDQEALNSLLNEIDVVHSQLMGAERFGQALKEDRFLSSIRQRFNLPGGSCCFDLPALHYWLHLPIERKKHDANQWQKSLKPLSDALTLWLKLARETGHFKAQIARAGFFQSDADEANILRLHIPMKYGVYPMISGHKNRFAIKFMAFENGQACSQDVEFELAVC | soluble
24 | TEFGSELKSFPEVVGKTVDQAREYFTLHYPQYNVYFLPEGSPVTRDLRYNRVRVFYNPGTNVVNHVPHVG | soluble
